Values quoted from earlier work in PMC6526119.

Molecular target: Hsp90 (Saccharomyces cerevisiae) (UniProt P02829)

Kd: 60 nM
Substance: Hsp90 (from UniProt P02829)
